Assay results: the RNAGym collection of RNA variant scans (doi:10.1101/gr.219683.116)

B1: mRNA-splicing (parent)
chain: AGUUGCUGCUGGGAGCUCCAGCACAGUGAAAUGGACAGAAGGGCAGAGCAA

Variants of: B1
Assay: exon inclusion enrichment index; higher = more inclusion; WT1 exon 5 minigene, HEK293

Variant | exon inclusion enrichment index
G5C C6A U7C G8A U10A C44A A45G | 0.213
G5C C6A U7C G8A U10A C44A A45C | 0.385
G5C C6A U7C G8A U10A C44A A45U | 0.339
G5C C6A U7C G8A U10A G12C G13C | 0.0502
G5C C6A U7C G8A U10A G12C G13U | 0.0133
G5C C6A U7C G8A U10A G12C G13A | 0.181
G5C C6A U7C G8A U10A G21C C22G | 0.322
G5C C6A U7C G8A U10A G21C C22U | 0.105
G5C C6A U7C G8A U10A G21C C22A | 0.0674
G5C C6A U7C G8A U10A G42C | 0.501
G5C C6A U7C G8A U10A G42U | 0.154
G5C C6A U7C G8A U10A G42A | 0.428
G5C C6A U7C G8A U10A A31U U32G | 0.0217
G5C C6A U7C G8A U10A A31U U32A | 0.00816
G5C C6A U7C G8A U10A A31U U32C | 0.293
G5C C6A U7C G8A U10A A30C A31G | 0.372
G5C C6A U7C G8A U10A A30C A31U | 0.168
G5C C6A U7C G8A U10A C19U | 0.0124
G5C C6A U7C G8A U10A C19G | 0.078
G5C C6A U7C G8A U10A C19A | 0.0348
G5C C6A U7C G8A U10A C36G A37C | 0.0273

Variant | exon inclusion enrichment index
G5C C6A U7C G8A U10A C36G A37G | 0.00352
G5C C6A U7C G8A U10A C36G A37U | 0.0414
G5C C6A U7C G8A U10A A37C | 0.426
G5C C6A U7C G8A U10A A37G | 0.237
G5C C6A U7C G8A U10A A37U | 0.0984
G5C C6A U7C G8A U10A C22A A23G | 0.124
G5C C6A U7C G8A U10A C22A A23C | 0.364
G5C C6A U7C G8A U10A C22A A23U | 0.0806
G5C C6A U7C G8A U10A A35C | 0.0232
G5C C6A U7C G8A U10A A35G | 0.0247
G5C C6A U7C G8A U10A A35U | 0.00802
G5C C6A U7C G8A U10A G43C C44U | 0.0879
G5C C6A U7C G8A U10A G43C C44G | 1.22
G5C C6A U7C G8A U10A G43C C44A | 0.602
G5C C6A U7C G8A U10A A40C G41C | 0.71
G5C C6A U7C G8A U10A A40C G41U | 0.0519
G5C C6A U7C G8A U10A A40C G41A | 0.0281
G5C C6A U7C G8A U10A A35G C36G | 0.00494
G5C C6A U7C G8A U10A A35G C36A | 0.0625
G5C C6A U7C G8A U10A A35G C36U | 0.00147
G5C C6A U7C G8A U10A C19U A20G | 0.0251

Variant | exon inclusion enrichment index
G5C C6A U7C G8A U10A C19U A20U | 0.0111
G5C C6A U7C G8A U10A C19U A20C | 0.0561
G5C C6A U7C G8A U10A G33A G34A | 0.00429
G5C C6A U7C G8A U10A G33A G34C | 0.0321
G5C C6A U7C G8A U10A G33A G34U | 0.00646
G5C C6A U7C G8A U10A A39U A40U | 0.036
G5C C6A U7C G8A U10A A39U A40C | 0.195
G5C C6A U7C G8A U10A A39U A40G | 0.0214
G5C C6A U7C G8A U10A A45G G46A | 0.559
G5C C6A U7C G8A U10A A45G G46C | 0.26
G5C C6A U7C G8A U10A A45G G46U | 0.0847
G5C C6A U7C G8A U10A G21A C22G | 0.156
G5C C6A U7C G8A U10A G21A C22U | 0.0694
G5C C6A U7C G8A U10A G21A C22A | 0.0529
G5C C6A U7C G8A U10A C22A | 0.0834
G5C C6A U7C G8A U10A C22U | 0.0831
G5C C6A U7C G8A U10A C22G | 0.197
G5C C6A U7C G8A U10A C22G A23C | 0.0525
G5C C6A U7C G8A U10A C22G A23G | 0.043
G5C C6A U7C G8A U10A C22G A23U | 0.0222
G5C C6A U7C G8A U10A G12A G13U | 0.016

Variant | exon inclusion enrichment index
G5C C6A U7C G8A U10A G12A G13C | 0.0982
G5C C6A U7C G8A U10A G12A G13A | 0.114
G5C C6A U7C G8A U10A G26U U27C | 0.613
G5C C6A U7C G8A U10A G26U U27G | 0.355
G5C C6A U7C G8A U10A G26U U27A | 0.0285
G5C C6A U7C G8A U10A G11U G12U | 0.037
G5C C6A U7C G8A U10A G11U G12C | 0.543
G5C C6A U7C G8A U10A G11U G12A | 0.0375
G5C C6A U7C G8A U10A G41C G42U | 0.481
G5C C6A U7C G8A U10A G41C G42A | 0.141
G5C C6A U7C G8A U10A G41C G42C | 0.654
G5C C6A U7C G8A U10A G43A C44U | 0.16
G5C C6A U7C G8A U10A G43A C44G | 0.71
G5C C6A U7C G8A U10A G43A C44A | 0.532
G5C C6A U7C G8A U10A G42A G43A | 1.43
G5C C6A U7C G8A U10A G42A G43U | 1.25
G5C C6A U7C G8A U10A G42A G43C | 1.53
G5C C6A U7C G8A U10A G21U C22G | 0.113
G5C C6A U7C G8A U10A G21U C22U | 0.011
G5C C6A U7C G8A U10A G21U C22A | 0.0315
